Several values for one entry are separate records, joined by “and”; a condition that tells them apart may be missing. Equal values may be shown once.
T1: human CD112R on Jurkat CD112R effector cells (human, UniProt Q6DKI7 1-326)
T1 sequence (looked up): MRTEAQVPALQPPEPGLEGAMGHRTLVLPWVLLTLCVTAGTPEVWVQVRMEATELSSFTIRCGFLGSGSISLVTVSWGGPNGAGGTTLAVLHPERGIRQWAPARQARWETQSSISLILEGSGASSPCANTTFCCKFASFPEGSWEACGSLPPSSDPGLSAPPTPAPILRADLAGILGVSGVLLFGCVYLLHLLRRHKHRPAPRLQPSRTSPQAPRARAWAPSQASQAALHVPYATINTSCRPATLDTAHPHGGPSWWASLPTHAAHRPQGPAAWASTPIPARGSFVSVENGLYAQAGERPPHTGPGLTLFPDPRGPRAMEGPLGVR

T2: hCD112R mFC recombinant protein (human; murine, UniProt Q6DKI7 41-160)
T2 construct: range 41-160; expressed in 293E cells; also called hCD112R ECD mFC; hCD112R-ECD-mFC; not shown: murine IgG2a Fc domain (MX2-mFc vector)
T2 sequence (looked up): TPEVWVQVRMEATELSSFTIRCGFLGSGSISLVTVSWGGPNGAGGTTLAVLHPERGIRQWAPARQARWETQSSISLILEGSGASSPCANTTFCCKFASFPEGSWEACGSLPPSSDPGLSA


Legend:
[1] = molecular target: T1, human CD112R on Jurkat CD112R effector …; experiment: cell-based or functional assay
[2] = molecular target: T2, hCD112R mFC recombinant protein; experiment: ELISA, coated hCD112R-ECD-mFC
Description: (§1) A plate was coated with a hCD112R-ECD-mFC protein (1.5 μg/mL) at a fixed concentration, and the humanized anti-CD112R antibodies diluted in a gradient (initial concentration: 1 μg/mL, 2.5-fold gradient dilution, 12 concentration gradients in total) were added to bind to the antigen. HRP-conjugated goat anti-human antibody IgG (Fc specific) (Sigma, A0170) was subjected to a 5000-fold dilution and used as a detection antibody for detection. The color development was performed with 0.1 mg/mL TMB, and finally stopped with 2 M hydrochloric acid. The plate was read at 420 nm/620 nm. EC₅₀ was obtained by fitting with a four-parameter logistic regression (4PL) model. The […] were COM701 (anti-CD112R antibody, Compugen, obtained by expression and purification according to the sequences in US20180280506A1) and the anti-KLH hu-IgG4 antibody.

[3] = molecular target: T2, hCD112R mFC recombinant protein; experiment: FACS competition, hCD112R mFc on CHO CD112 cells
Description: (§2) Cells CHO CD112 overexpressing human CD112 were co-incubated with a hCD112R mFc protein solution (5 μg/mL) prepared in a staining buffer (PBS+1% FBS), and the humanized anti-CD112R antibodies or the control antibodies at different concentrations (initial concentration: 100 μg/mL, 3-fold dilution, 10 concentration gradients) at 4° C. for 30 min. Unbound antibodies were then washed with a staining buffer and the cells were incubated with 1% (v/v) goat anti-mouse IgG Fc fluorescent secondary antibodies (Jackson ImmunoResearch) prepared in a staining buffer at 4° C. for 30 min in the dark. Finally, the cells were collected by using a flow cytometer (BD Canto II), and the fluorescent antibodies bound to the cell surface were detected. Raw data were analyzed by using FlowJo to obtain MFI values, and a four-parameter curve fitting was performed by using GraphPad Prism software to obtain IC₅₀ values. The positive control and the negative control were COM701 (anti-CD112R antibody, Compugen, obtained by expression and purification according to the sequences in US20180280506A1) and the anti-KLH hu-IgG4 antibody, respectively.

[4] = molecular target: T2, hCD112R mFC recombinant protein; experiment: ELISA, coated hCD112R-ECD-mFC; EC50 COM701/EC50 antibody
Description: as §1

[5] = molecular target: T2, hCD112R mFC recombinant protein; experiment: FACS competition, hCD112R mFc on CHO CD112 cells; IC50 COM701/IC50 antibody
Description: as §2

EC50, CD112R/CD112 reporter [1] [µg/mL]	Relative activity (%), EC50 COM701/EC50 antibody [1] [%]	EC50 [2] [µg/mL]	IC50 [3]	Relative activity (%) [4] [%]	Relative activity (%) [5] [%]	Binder
0.0355	182	–	–	–	–	Hu37 (antibody, IgG4, V domains shown) VH: EVQLVESGGGLVQPGGSLRLSCAASGFTFSSYHMSWVRQAPGKGLELVSAINSNVISTYYLDTVKGRFTISRDNAKNSLYLQMNSLRAEDTAVYYCARHEDYYGFAMDYWGQGTLVTVSS VL: DIVMTQSPDSLAVSLGERATINCKASQSVTNDVAWYQQKPGQPPKLLIYYVSNHYTGVPDRFSGSGSGTDFTLTISSLQAEDVAVYFCQQAYRSPWTFGQGTKLEIK
0.0263	209	0.00466	3.39 µg/mL and 2.51 µg/mL	122	–	Hu18 (antibody, IgG4, V domains shown, humanized IgG4) VH: EVQLVESGGGLVKPGGSLRLSCAASGFTFSSYHMSWVRQAPGKGLELVSAISRDGDSTYYPDTVKGRFTISRDNAKNSLYLQMNSLRAEDTAVYYCSRHEDYFGFAMDSWGQGTLVTVSS VL: EIVMTQSPPTLSLSPGERVTLSCKASQSVSNDVAWYQQKPGQAPRLLIYYVSNRFTGIPARFSGSGSGTDFTLTISSLQPEDFAVYFCQQAYRSPWTFGQGTKLEIK
0.0688	92	0.00276	4.31 µg/mL	154	92.2	Hu1 (antibody, IgG4, V domains shown, humanized IgG4; also called Hu-01) VH: EVQLVESGGGLVQPGGSLRLSCAASGFTFSSYHMSWVRQAPGKGLELVAAINSNDINTYYLDTVKGRFTISRDIAKNSLYLQMNSLRAEDTAVYYCARHEDYYGFAMDYWGQGTLVTVSS VL: DIVMTQSPDSLAVSLGERATINCKASQSVTNDVAWYQQKPGQPPKLLIYYVSNHYTGVPDRFSGSGSGTDFTLTISSLQAEDVAVYFCQQAYRSPWTFGQGTKLEIK
0.0217	254	–	–	–	–	Hu39 (antibody, IgG4, V domains shown) VH: EVQLVESGGGLVQPGGSLRLSCAASGFTFSSYHMSWVRQAPGKGLELVSAINSNVISTYYLDTVKGRFTISRDNAKNSLYLQMNSLRAEDTAVYYCARHEDYYGFAMDYWGQGTLVTVSS VL: EIVMTQSPPTLSLSPGERVTLSCKASQSVSNDVAWYQEKPGQAPRLLIYYVSHRFTGIPARFSGSGSGTDFTLTISSLQPEDFAVYYCHQAYRSPWTFGQGTKLEIK
0.0242	227	–	–	–	–	Hu40 (antibody, IgG4, V domains shown) VH: EVQLVESGGGLVQPGGSLRLSCAASGFTFSSYHMSWVRQAPGKGLELVSAINSNVISTYYLDTVKGRFTISRDNAKNSLYLQMNSLRAEDTAVYYCARHEDYYGFAMDYWGQGTLVTVSS VL: DIVMTQSPDSLAVSLGERATINCKASQSVSNDVAWYQQKPGQPPKLLIYYVSHRFTGVPDRFSGSGSGTDFTLTISSLQAEDVAVYFCHQAYRSPWTFGQGTKLEIK
0.039	190	–	–	–	–	Hu47 (antibody, IgG4, V domains shown) VH: EVQLVESGGGLVKPGGSLRLSCAASGFTFSSYHMSWVRQAPGKGLELVSAINSNVISTYYLDTVKGRFTISRDNAKNSLYLQMNSLRAEDTAVYYCARHEDYYGFAMDYWGQGTLVTVSS VL: DIQMTQSPSSLSASVGDRVTITCKASQSVSNDVAWYQQKPGKAPKLLIYYVSNRFTGVPSRFSGSGSGTDFTLTISSLQPEDFATYFCQQAYRSPWTFGQGTKLEIK
0.0387	174	–	–	–	–	Hu44 (antibody, IgG4, V domains shown) VH: EVQLVESGGGLVKPGGSLRLSCAASGFTFSSYHMSWVRQAPGKGLELVSAINSNVISTYYLDTVKGRFTISRDNAKNSLYLQMNSLRAEDTAVYYCARHEDYYGFAMDYWGQGTLVTVSS VL: AIQMTQSPSSLSASVGDRVTITCKASQSVTNDVAWYQQKPGKAPKLLIYYVSNHYTGVPSRFSGSGSGTDFTLTISSLQPEDFATYFCQQAYRSPWTFGQGTKLEIK
0.0267	243	–	–	–	–	Hu41 (antibody, IgG4, V domains shown) VH: EVQLVESGGGLVQPGGSLRLSCAASGFTFSSYHMSWVRQAPGKGLELVSAINSNVISTYYLDTVKGRFTISRDNAKNSLYLQMNSLRAEDTAVYYCARHEDYYGFAMDYWGQGTLVTVSS VL: DIQMTQSPSSLSASVGDRVTITCKASQSVSNDVAWYQQKPGKAPKLLIYYVSNRFTGVPSRFSGSGSGTDFTLTISSLQPEDFATYFCQQAYRSPWTFGQGTKLEIK
0.0421	176	–	–	–	–	Hu48 (antibody, IgG4, V domains shown) VH: EVQLVESGGGLVKPGGSLRLSCAASGFTFSSYHMSWVRQAPGKGLELVSAINSNVISTYYLDTVKGRFTISRDNAKNSLYLQMNSLRAEDTAVYYCARHEDYYGFAMDYWGQGTLVTVSS VL: EIVMTQSPPTLSLSPGERVTLSCKASQSVSNDVAWYQQKPGQAPRLLIYYVSNRFTGIPARFSGSGSGTDFTLTISSLQPEDFAVYFCQQAYRSPWTFGQGTKLEIK
0.0426	158	–	–	–	–	Hu43 (antibody, IgG4, V domains shown) VH: EVQLVESGGGLVKPGGSLRLSCAASGFTFSSYHMSWVRQAPGKGLELVSAINSNVISTYYLDTVKGRFTISRDNAKNSLYLQMNSLRAEDTAVYYCARHEDYYGFAMDYWGQGTLVTVSS VL: DIVMTQSPDSLAVSLGERATINCKASQSVTNDVAWYQQKPGQPPKLLIYYVSNHYTGVPDRFSGSGSGTDFTLTISSLQAEDVAVYFCQQAYRSPWTFGQGTKLEIK
0.0355	183	–	–	–	–	Hu42 (antibody, IgG4, V domains shown) VH: EVQLVESGGGLVQPGGSLRLSCAASGFTFSSYHMSWVRQAPGKGLELVSAINSNVISTYYLDTVKGRFTISRDNAKNSLYLQMNSLRAEDTAVYYCARHEDYYGFAMDYWGQGTLVTVSS VL: EIVMTQSPPTLSLSPGERVTLSCKASQSVSNDVAWYQQKPGQAPRLLIYYVSNRFTGIPARFSGSGSGTDFTLTISSLQPEDFAVYFCQQAYRSPWTFGQGTKLEIK
0.0337	192	–	–	–	–	Hu38 (antibody, IgG4, V domains shown) VH: EVQLVESGGGLVQPGGSLRLSCAASGFTFSSYHMSWVRQAPGKGLELVSAINSNVISTYYLDTVKGRFTISRDNAKNSLYLQMNSLRAEDTAVYYCARHEDYYGFAMDYWGQGTLVTVSS VL: AIQMTQSPSSLSASVGDRVTITCKASQSVTNDVAWYQQKPGKAPKLLIYYVSNHYTGVPSRFSGSGSGTDFTLTISSLQPEDFATYFCQQAYRSPWTFGQGTKLEIK
0.0256	261	–	–	–	–	Hu45 (antibody, IgG4, V domains shown) VH: EVQLVESGGGLVKPGGSLRLSCAASGFTFSSYHMSWVRQAPGKGLELVSAINSNVISTYYLDTVKGRFTISRDNAKNSLYLQMNSLRAEDTAVYYCARHEDYYGFAMDYWGQGTLVTVSS VL: EIVMTQSPPTLSLSPGERVTLSCKASQSVSNDVAWYQEKPGQAPRLLIYYVSHRFTGIPARFSGSGSGTDFTLTISSLQPEDFAVYYCHQAYRSPWTFGQGTKLEIK
0.0269	249	–	–	–	–	Hu46 (antibody, IgG4, V domains shown) VH: EVQLVESGGGLVKPGGSLRLSCAASGFTFSSYHMSWVRQAPGKGLELVSAINSNVISTYYLDTVKGRFTISRDNAKNSLYLQMNSLRAEDTAVYYCARHEDYYGFAMDYWGQGTLVTVSS VL: DIVMTQSPDSLAVSLGERATINCKASQSVSNDVAWYQQKPGQPPKLLIYYVSHRFTGVPDRFSGSGSGTDFTLTISSLQAEDVAVYFCHQAYRSPWTFGQGTKLEIK
